Reference: the nanobody polyreactivity screen of Harvey et al. (2022)

Assay: yeast display, Sf9 membrane polyspecificity reagent, FACS + sequencing; frameworks hold sequencing errors
Summary of the method: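 A synthetic nanobody library was expressed on Saccharomyces cerevisiae BJ5465 by galactose induction for 36–48 hours. The library was stained for 1 hour at 4 °C with 10% biotinylated, detergent-solubilized Sf9 membrane reagent and enriched with streptavidin microbeads before FACS. Low and high (top ~1%) gates were set on anti-HA fluorescence for expression and streptavidin fluorescence for reagent binding, and each polyreactivity label reflects the gate of origin.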

| Sequence | polyreactivity (PSR sort gate) |
| --- | --- |
| QVQLVESGGGLVQAGGSLRLSCAASGITFSTYAMGWYRQAPGKERELVAAITKSGGSTYYADSVKGRFTISRDNAKNTVYLQMNSLKPEDTAVYYCAAKGWIWNPYNYWGQGTQVTVSS | low polyreactivity |
| QVQLVESGGGLVQAGGSLRLSCAASGITFSVYTMGWYRQAPGKERELVAAIDSDGITNYADSVKGRFTISRDNAKNNVYLQMNSLKPEDTAVYYCAKQSGRADGVSGFDYWGQGTQVTVSS | low polyreactivity |
| QVQLVESGGGLVQAGGSLRLSCAASGITFSWYAMGWYRQAPGKEREFVATISASGGSTYYADSVKGRFTISRDNAKNTVYLQMNSLKAEDTAVYYCAAVIWYRNGARGTFDYWGQGTQETVSS | high polyreactivity |
| QVQLVESGGGLVQAGGSLRLSCAASGITFSYYAMGWYRQAPGKERELVAAINSSGGSTYYADSVKGRFTISRDNAKNTVYLQMNSLKPEDTAVYYCAADSFLYPYAEFGYWGQGTQVTVSS | low polyreactivity |
| QVQLVESGGGLVQAGGSLRLSCAASGITFSYYAMGWYRQAPGKERELVAAINSSGGSTYYADSVKGRFTISRDNAKNTVYLQMNSLKPEDTAVYYCNADYGYHNHLFWGYYGWSSDHWGQGTQVTVSS | low polyreactivity |
| QVQLVESGGGLVQAGGSLRLSCAASGITFSYYAMGWYRQAPGKERELVAAISGSGTSTYYADSVKGRFTISRDNAKNTVYFQMNSLKPEDTAVYYCAAGPPRKPGYYYWGQGTQVTVSS | high polyreactivity |
| QVQLVESGGGLVQAGGSLRLSCAASGITFTAYAMGWYRQAPGKEREFVAVITRSGGSTYYADSVKGRFTISRDNAKNTVYLQMNSLKPEDTAVYYCAAETSYRYGWYYYWGQGTQVTVSS | high polyreactivity |
| QVQLVESGGGLVQAGGSLRLSCAASGITFTDYAMGWYRPAPGKERELVAAISSRGGSTYYADSVKGRFTISRDHAKNTVYLQMNSLKPEDTAVYYCNARFVRRGSGYDYWGQGTQVTLSS | high polyreactivity |
| QVQLVESGGGLVQAGGSLRLSCAASGITFTEYAMGWYRQAPGKERELVATISYGGGITYYADSVKGRFTISRDNAKNTVYLQMNSLKPEDTAVYYCAADGLSQVQRGMDYWGQGTQVTVSS | low polyreactivity |
| QVQLVESGGGLVQAGGSLRLSCAASGITFTFYAMGWYRQAPGKERELVAAISRRGGSTYYADSVKGRFTISRDNAKNTVYLQMNSLKPEDTAVYYCAARGYRPMDYWGHGTQVTVSS | high polyreactivity |
| QVQLVESGGGLVQAGGSLRLSCAASGITFTIYGMGWYRQATGKERELVAVISRRGGSTYYADSVKGRFTISRDNAKNTVYLQMNSLKPEDTAFYYCNTRTQGAKQYTGYDYWGQGTQVTVSS | high polyreactivity |
| QVQLVESGGGLVQAGGSLRLSCAASGITFTSNTMGWYRKAPGKERELVAAISKSGGSTYYADSVKGRFTISRDNAKNTVYLQMNSLKPEDTAVYYCAKDSYYYRRDVTVDYWGQGTQVTVSS | low polyreactivity |
| QVQLVESGGGLVQAGGSLRLSCAASGITFTSYAMGWYRQAPGKERELVAAISWSGDRTYYADSVKGRFTISRDNAKNTVYLQMNSLKPEDTAVYYCAADQFTGSVWAYYYWGQGTQVTVSS | high polyreactivity |
| QVQLVESGGGLVQAGGSLRLSCAASGITFTVYAMGWYRQAPGNEREVVAVINESGGSTYYADSVKGRFTISRDNAKNTVYLQMNSLKPEDTAVYYCNKTRVYVSSTYDYWGQGTQVTVSS | low polyreactivity |
| QVQLVESGGGLVQAGGSLRLSCAASGITFTYNAMGWYRQAPGKERELVASITLSGGNTYYADSVTGRFTISRDNAKNTVYLQMNSLKPEDTAVYYCAADDRGSSYGHFTVEYGYWGQGTQVTVSS | low polyreactivity |
| QVQLVESGGGLVQAGGSLRLSCAASGITFTYYAMGWYRQAPGKERELVAAITSGGDTYYADSVKGRFTISRDNAKNTVYLQMNSLKPEDTAVYYCAAEAVVVTKYSYWTYGLYDYWGQGTQVTVSS | high polyreactivity |
| QVQLVESGGGLVQAGGSLRLSCAASGITFTYYAMGWYRQAPGKERELVAGISRGGSTYYADSVKGRFTISRDNAKNTVYLQMNSLKPEDTAVYYCAATSYRRTGYNYWGQGTQVTVSS | high polyreactivity |
| QVQLVESGGGLVQAGGSLRLSCAASGITFTYYAMGWYRQAPGKERELVDAITDRGGRTYYSDSVKGRFTISRDNAKNTVYIQMNSLKPEDTAVYYCAAYVPQGYKLYYWGQGTQVTVSS | high polyreactivity |
| QVQLVESGGGLVQAGGSLRLSCAASGITFVDNAMGWYRQAPGKERELVAVISSSGGSTYYADSVKGRFTISRDNAKNTVYLQMNSLKPEDTAVYYCAARNRFYRRPYDYWGQGTQVTVSS | high polyreactivity |
| QVQLVESGGGLVQAGGSLRLSCAASGITFVDYVMGWYRQAPGKERELVAAISRGGSRTKYADSVKGRFTISRDNAKNTVYLQMNSLKPEDTAVYYCAAPWLVNHYYPSQEYDYWGQGTQVTVSS | high polyreactivity |

| Sequence | polyreactivity (PSR sort gate) |
| --- | --- |
| QVQLVESGGGLVQAGGSLRLSCAASGITFVFYAMGWYRQAPGKERELVAAISWSGGITYYADSVKGRFTISRDNAKNTVYLQMNSLKPEDTAVYYCAARISWEKYQAGYDYWGQGTQVTVSS | low polyreactivity |
| QVQLVESGGGLVQAGGSLRLSCAASGITFVGNAMGWYRQAPGKERELVAGIRGNGGSTYYADSVKGRFTISRDNAKYTVYLQMNSLKPEDTAVYYCAAAAYYADFDYWGQGTQVTVSS | low polyreactivity |
| QVQLVESGGGLVQAGGSLRLSCAASGITFVLNVMGWYRQAPGKERELVAAISWSVGGTYYADSVKGRFTISRDNAKNTVYLQMNSLKPEDTAVYYCAAGSYAYDNYGSEYWKWYGYWGQGTQVTVSS | low polyreactivity |
| QVQLVESGGGLVQAGGSLRLSCAASGITFVLYAMGWYRQAPGKERELVAAISSGGRTKYADSVKGRFTISRDNAKNTVYLQMNSLKPEDTAVYYCATKTRYLYPAYYYWGQGTQVTVSS | high polyreactivity |
| QVQLVESGGGLVQAGGSLRLSCAASGITFVRNAMGWYRQAPGKEREFVAAISRSGTTTYYADSVKGRFTISRDNAKNTVYLQMNSLKPEETAVYYCAAVRWVRYRTSAYEYWGQGTQVTVSS | high polyreactivity |
| QVQLVESGGGLVQAGGSLRLSCAASGITFVRNAMGWYRQAPGKERELVAAISGRGGITYYADSVKGRFTISRDNAKNTVYLQMNSLKPEDTAVYYCAASSAGSSYNYWGQGTQVTVSS | high polyreactivity |
| QVQLVESGGGLVQAGGSLRLSCAASGITFVRYALGWYRPAPGKERELVAAISRRGGSTYYADSVKGRFTISRDNAKNTVYLQMNSLKPEDTAVYYCNAQRPKATVWQLYDSWGQGTQVTVSS | high polyreactivity |
| QVQLVESGGGLVQAGGSLRLSCAASGITFVRYTMGWYRQAPGKEREFVAGITRGGSTYYADSVKGRFTISRDNAKNTVYLQMNSLKPEDTAVYYCAARPRFLRASVEYDYWGQGTQVTVSS | high polyreactivity |
| QVQLVESGGGLVQAGGSLRLSCAASGITFVSNVMGWYRQAPGKEREFVAAITGRGDSTYADSVKGRFTISRDNAKNTVYLQMNSLKPEDTAFYYCNRESDIYSFVAMNYWGQGTQVTVSS | low polyreactivity |
| QVQLVESGGGLVQAGGSLRLSCAASGITFVSYGMGWYRQAPGKERELVAAISSGGRTYADSVKGRFTISRDNAKNTVYLQMNSLKPEDTAVYYCNARDYASGTEGDYWGQGTLVTVSS | low polyreactivity |
| QVQLVESGGGLVQAGGSLRLSCAASGITFVTYAMGWSRQAPGKERELVADISWRGTSTNYADSVKGRFTISRDNAKNTVYFQMISLKPEDTAVYYCAAKQTYTRLHYLGPSVWDNYDYWGQGTQVTVSS | high polyreactivity |
| QVQLVESGGGLVQAGGSLRLSCAASGITFVVYAMGCYRPAPGKERELVASITYSGGSTYYADSVQGRFTISRDNAKNTVYLQMTSLKPEDTAVYYCNADGYTIYYLPYSDYDAYDYWGQGTQVTVSS | low polyreactivity |
| QVQLVESGGGLVQAGGSLRLSCAASGITFVWYDMGGYRQAPGKEREFVAVISKRGGSTYYADSVKGRFTISRDNAKNTVYLQMNSLKPEDTAVYYCAASYNLYRRYYYWGQGTQVTVSS | high polyreactivity |
| QVQLVESGGGLVQAGGSLRLSCAASGITFVWYDMGWYRQAPGKEREFVAVISKRGGSTYYADSVKGRFTISRDNAKNTVYLQMNSLKPEDTAVYYCAASYNLYRRYYYWGQGTQVTVSS | high polyreactivity |
| QVQLVESGGGLVQAGGSLRLSCAASGITFVYYAMGWYRQAPGKERELVAAITSDGGSTYYADSVKGRFTISRDNAKNTVYLQMNSLKPEDTAVYYCAAEWTSWSWWYGWYEFDYWGQGTQVTVSS | high polyreactivity |
| QVQLVESGGGLVQAGGSLRLSCAASGITFVYYAMGWYRQAPGKERELVASISSGGSTYYADSVKGRFTISRDNAKNTVYLQMNSLKPEDTAVYYCAAPTGWYPAYCEYEYWGQGTQVTVSS | low polyreactivity |
| QVQLVESGGGLVQAGGSLRLSCAASGITFVYYVMGWYRQAPGKERELVAGISSGGSTYYADSVKGRFTISRDNAKNTVYLQMNSLKPEDTAVYYCAAVSTPYYGHVKRYYYWGQGTQVTVSS | high polyreactivity |
| QVQLVESGGGLVQAGGSLRLSCAASGITFWGYAMGWYRQAPGKEREFVARINWSGGRTYYAESVKGRFTISRDNAKNTVYLQMNSLKPEDTAVYYCAATSLIYGYRTYDYWGQGTQVTVSS | high polyreactivity |
| QVQLVESGGGLVQAGGSLRLSCAASGITFWGYAMGWYRQAPGKEREFVARINWSGGRTYYAESVKGRFTISRDNAKNTVYLQMNSLKPEDTAVYYCNVVLRSVVSGDYWVQGTQVTVSS | high polyreactivity |
| QVQLVESGGGLVQAGGSLRLSCAASGITFWPYAMGWYIQAPGKERELVAAIRASAGRTYYADSVKGRFTISRDNAKNTVYLQMNSLKPEDTAVYYCNAYGRYGKFRVEYDYWGQGTQVTVSS | low polyreactivity |
